Laboratory results: US7011951
Positions count from the first letter of the chain named.

Columns and labels:
[1] = molecular target: T1, AcinusS (D/A) resulting from substitution of Asp^1093 with Ala
T1 chain: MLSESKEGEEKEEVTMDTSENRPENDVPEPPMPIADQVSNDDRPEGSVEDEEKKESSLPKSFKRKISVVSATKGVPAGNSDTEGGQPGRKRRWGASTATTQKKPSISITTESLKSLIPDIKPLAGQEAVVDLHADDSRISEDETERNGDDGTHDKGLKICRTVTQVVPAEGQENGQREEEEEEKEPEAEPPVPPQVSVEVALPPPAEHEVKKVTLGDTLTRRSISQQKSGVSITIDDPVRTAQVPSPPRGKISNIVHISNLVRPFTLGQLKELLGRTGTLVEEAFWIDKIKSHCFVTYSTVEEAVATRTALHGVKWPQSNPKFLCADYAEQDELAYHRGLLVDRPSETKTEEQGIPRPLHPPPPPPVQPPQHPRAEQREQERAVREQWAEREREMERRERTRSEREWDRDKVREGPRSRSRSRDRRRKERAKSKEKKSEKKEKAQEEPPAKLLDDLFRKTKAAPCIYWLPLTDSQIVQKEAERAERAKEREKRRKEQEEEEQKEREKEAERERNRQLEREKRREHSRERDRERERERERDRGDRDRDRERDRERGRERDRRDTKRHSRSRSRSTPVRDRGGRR

human AcinusS = molecular target: T2, human AcinusS
T2 chain: T1 chain with A335D

B1: recombinant active human caspase-3 (protein)
chain: SGISLDNSYKMDYPEMGLCIIINNKNFHKSTGMTSRSGTDVDAANLRETFRNLKYEVRNKNDLTREEIVELMRDVSKEDHSKRSSFVCVLLSHGEEGIIFGTNGPVDLKKITNFFRGDRCRSLTGKPKLFIIQACRGTELDCGIETDSGVDDDMACHKIPVEADFLYAYSTAPGYYSWRNSKDGSWFIQSLCAMLKQYADKLEFMHILTRVNRKVATEFESFSFDATFHAKKQIPCIVSMLTKELYFYH
in vitro cleavage by caspase-3 (SDS-PAGE, immunoblot) [1]: a mutation of substituting Asp^1093 with Ala (D/A) abolished the in vitro cleavage of Acinus by caspase-3 | cleavage of AcinusS by caspase-3 (SDS-PAGE, immunoblot; microsequencing of the cleavage product) (human AcinusS): human AcinusS was actually cleaved with caspase-3 in vivo, and the cleavage site was determined to be the Asp^1093 of DELD^1093
